Laboratory results taken from patent EP3222712A1, “ALCOHOL DEHYDROGENASE FROM PICHIA PASTORIS AND USE THEREOF” (priority 2016, dated 2017).
Marks after values point to notes of the source that are not given here.

B1: alcohol dehydrogenase from Pichia pastoris (PPADH) (Komagataella phaffii GS115) (protein)
chain: MVSKVLLTGASGYIAQHITNELLSHGFKVIGTVRRQEQADQLHKQFSEESSVLQKDPSLLTYVLVPDIGASDAFDEVLKSTPDITYVLHTASPFIFNDDRALEDVYLKPAVEGTRNILSAIKKFANDSVKNVVVTSSFAAILNADKFEDKSFIHTEKVWNNNTWDQTKSGDRGVAYIVSKKEAEKAAWDFVEKEKPNFKLTTVNPPYVFGPQKFDASAKKESLNTSAEIVGSLLHTKYPSDDKLFDDPLNLSVDVRDVALYHVLPLLNADLASRRLLVVQSKFSAQRILNIINENFPELKGKIAVGKPEETARVEAIKGPEYNNSVTVGLTGVDPIPLEKTVVDSVKQILRANK

Assays:
Test in all cases: kinetic parameters of purified PPADH by photometry
Format in all cases: biochemical, Pichia pastoris GS 115
[1] = biological target: alcohol dehydrogenase from Pichia pastoris (PPADH) (Komagataella phaffii, UniProt C4R4L0)
Description: (§1) In order to determine the kinetic parameters of the recombinant PPADH, purified enzyme was manufactured as described in example 4b). Afterwards the described test for reductive activity was used. All parameters such as 100 mM tris HCl buffer (pH 7), 0.2 mM NADPH, and 10 µl enzyme (purified PPADH) were kept constant, except that concentration of substrate and concentration of co-factor were varied. The kinetic parameters were calculated using the software GraphPad Prism5 based on a non-linear ,fitting"-algorithm. Table 4: kinetic parameters of purified PPADH regarding benzaldehyde, racemic CF3-ketone as substrates and the co-factor NADPH determined by photometry

[2] = substrate: O=Cc1ccccc1; conditions: other: purified PPADH, tris HCl pH 7, non-linear fitting
Description: as §1

[3] = substrate: CC(=O)CC(O)(c1ccccc1)C(F)(F)F
Description: as §1

[4] = other: purified PPADH, tris HCl pH 7, non-linear fitting

Molecule	Vmax ([1]; tris HCl pH 7) [U/mg]	kcat ([1]; tris HCl pH 7) [s⁻¹]	Km ([1]; tris HCl pH 7, non-linear fitting) [µM]	Km [2] [µM]	Vmax [2] [U/mg]	kcat [2] [s⁻¹]	kcat/Km [2] [M⁻¹ s⁻¹]	Km ([3]; other: corrected for 50% (S)-enantiomer in the racemic substrate, pH 7.0) [µM]	Km [3, 4]	Vmax [3, 4] [U/mg]	kcat [3, 4] [s⁻¹]	kcat/Km [3, 4]
NC(=O)C1=CN([C@@H]2O[C@H](COP(=O)(O)OP(=O)(O)OC[C@H]3O[C@@H](n4cnc5c(N)ncnc54)[C@H](OP(=O)(O)O)[C@@H]3O)[C@@H](O)[C@H]2O)C=CC1 [NADPH]	94.2	19.5	48.3									
B1				3034.0	98.5	25.1	8300	899	1797.0* µM	46.3	6.4	3.6* s^-1mM^-1
